Source: the Human Domainome abundance scans (Beltran et al. 2025)

B1: Cytoplasmic polyadenylation element-binding protein 2, residues 513 to 575; numbered along this chain, Q7Z5Q1 (parent)
chain: KRVEVKPYVLDDQMCDECQGARCGGKFAPFFCANVTCLQYYCEFCWANIHSRAGREFHKPLVK

Variants of: B1
Assay: abundance fitness (aPCA) (normalised: wild type 0, dead -1); higher = more abundant; growth selection in yeast, the domain comes from the species named
Settings: Homo sapiens

Abundance fitness, by site and new letter:
Q13: C -0.146; G -0.378; H -0.087; E -0.358
D12: F -0.312; S -0.146; L -0.288; K 0.012; H 0.049; W -0.225; G -0.066; R -0.182; Q 0.052; C -0.305; N -0.019; V -0.221; Y -0.273; P -0.107; M -0.189; T -0.168; A -0.117
E4: T -0.111; K -0.239; H -0.363; A -0.15; S -0.185; Y -0.275; I -0.289; L -0.322; N -0.15; P -0.145; C -0.353; D -0.132; Q -0.099; M -0.242; V -0.223; G -0.234; F -0.208
P7: G -0.141; H -0.086; F -0.413; Y -0.405; L -0.579; I -1.07; V -0.735; D 0.132; W -0.622; E 0.051; A -0.227; N 0.01; R -0.125; T -0.014; K 0.046; Q -0.098; M -0.259
R2: P 0.015; C -0.229; E 0.067; Q -0.028; Y -0.513; I 0.048; M -0.012; D 0.001; A -0.096; L -0.363; H -0.319; K 0.101; G -0.077; T -0.115; V -0.187
Y8: T -0.026; W -0.091; M -0.365; C -0.115; P 0.075; R 0.064; K 0.121; E 0.18; S 0.121; I -0.026; A 0.01; H -0.036; Q 0.012; N 0.13; V -0.086; G 0.154
L10: T 0.045; N 0.005; P -0.028; C -0.065; E 0.076; M 0.037; I -0.062; F 0.009; R 0.046; G 0.032; Q 0.121; Y -0.193; W 0.056; V -0.106; H -0.227; K 0.1
V9: N 0.007; I -0.022; T -0.036; Q 0.096; L -0.043; G -0.087; E -0.022; M 0.049; Y -0.212; R -0.14; P -0.055; H 0.051; D 0.083; S 0.058; C -0.002; K -0.003; A -0.02
K6: N 0.006; H -0.225; D 0.029; M -0.028; P -0.102; V -0.104; Q -0.083; A -0.045; W -0.315; E -0.069; F -0.337; R -0.128; Y -0.382; G -0.017; L -0.297; S -0.085
V5: Q 0.077; W -0.247; F -0.098; Y -0.141; R 0.005; P 0.167; C -0.074; T 0.006; A -0.088; L -0.136; N 0.048; S 0.105; I -0.113; M -0.011; E 0.144
D11: N -0.028; L -0.27; W -0.238; G -0.041; A -0.122; C -0.205; Y -0.112; S -0.125; I 0.022; V -0.075; M -0.259; T -0.239; R -0.068; P -0.183; Q -0.037; F -0.149; E 0.084
